Our source for the Kd values is article PMC7835227 (Scientific Reports, 2021).

For one assay, the target named is T1, GYM329 (human).
T1 construct: light chain of GYM329 (humanized, engineered MST1032); Made a molecule only as the ligand of Fc receptors (FcγRs, FcRn); Captured by protein L in the assays; also called anti-latent myostatin sweeping antibody; source: Chinese hamster ovary cells, stably expressed, purified (protein A)
Put plainly: SPR; Biacore T200, 25 °C, pH 6.0, PB-P+; antibody captured by protein L immobilised on a CM5 chip; FcRn as analyte, two-fold dilutions 15-240 nmol/L (GYM329) or 250-4000 nmol/L (trastuzumab); steady state model. Particulars: both partners purified.

In assay [1] the target is T2, reference wild type human IgG1 (with trastuzumab Fab) (human).
T2 construct: heavy variable domain of trastuzumab; wild type human IgG1 heavy constant region; light chain of trastuzumab; Ligand of FcRn here; The supplement says that recombinant antibodies other than GYM329 and GYM-cyFc were expressed transiently in FreeStyle293-F and purified with protein A
The assay is described as above. Particulars: both partners purified.

T1 sequence (heavy, as listed by the source, chain 1 of 2): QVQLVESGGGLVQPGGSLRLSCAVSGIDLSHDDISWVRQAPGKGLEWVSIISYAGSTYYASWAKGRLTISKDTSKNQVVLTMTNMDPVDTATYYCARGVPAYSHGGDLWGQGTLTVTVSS
T1 sequence (light, as listed by the source, chain 2 of 2): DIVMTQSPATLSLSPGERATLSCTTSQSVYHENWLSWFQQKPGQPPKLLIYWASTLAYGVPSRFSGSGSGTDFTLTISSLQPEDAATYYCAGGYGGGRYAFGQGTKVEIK

B1: cynomolgus monkey FcRn (receptor)
chain 1: AESHLSLLYHLTAVSSPAPGTPAFWVSGWLGPQQYLSYDSLRGQAEPCGAWVWENQVSWYWEKETTDLRIKEKLFLEAFKALGGKGPYTLQGLLGCELSPDNTSVPTAKFALNGEEFMNFDLKQGTWGGDWPEALAISQRWQQQDKAANKELTFLLFSCPHRLREHLERGRGNLEWKEPPSMRLKARPGNPGFSVLTCSAFSFYPPELQLRFLRNGMAAGTGQGDFGPNSDGSFHASSSLTVKSGDEHHYCCIVQHAGLAQPLRVELETPAKSS
chain 2: IQRTPKIQVYSRHPPENGKPNFLNCYVSGFHPSDIEVDLLKNGEKMGKVEHSDLSFSKDWSFYLLYYTEFTPNEKDEYACRVNHVTLSGPRTVKWDRDM
modifications: limits not given; soluble ectodomain taken from the UniProt extracellular feature, with beta-2-microglobulin as obligate subunit by convention
For B1, binding with GYM329 was put at a Kd of 104 nM.

B2: cynomolgus monkey FcRn (receptor)
chain 1: AESHLSLLYHLTAVSSPAPGTPAFWVSGWLGPQQYLSYDSLRGQAEPCGAWVWENQVSWYWEKETTDLRIKEKLFLEAFKALGGKGPYTLQGLLGCELSPDNTSVPTAKFALNGEEFMNFDLKQGTWGGDWPEALAISQRWQQQDKAANKELTFLLFSCPHRLREHLERGRGNLEWKEPPSMRLKARPGNPGFSVLTCSAFSFYPPELQLRFLRNGMAAGTGQGDFGPNSDGSFHASSSLTVKSGDEHHYCCIVQHAGLAQPLRVELETPAKSS
chain 2: IQRTPKIQVYSRHPPENGKPNFLNCYVSGFHPSDIEVDLLKNGEKMGKVEHSDLSFSKDWSFYLLYYTEFTPNEKDEYACRVNHVTLSGPRTVKWDRDM
Molecule B2 showed a Kd in assay [1] of 1530 nM.

Broadly, the Kd is a measure of binding affinity in units of concentration.
